{
  "source": "paper PMC8939814",
  "biological_target": "CXCR2 (human) (UniProt P25025)",
  "sequence (P25025 whole entry, the tested form may be a part)": "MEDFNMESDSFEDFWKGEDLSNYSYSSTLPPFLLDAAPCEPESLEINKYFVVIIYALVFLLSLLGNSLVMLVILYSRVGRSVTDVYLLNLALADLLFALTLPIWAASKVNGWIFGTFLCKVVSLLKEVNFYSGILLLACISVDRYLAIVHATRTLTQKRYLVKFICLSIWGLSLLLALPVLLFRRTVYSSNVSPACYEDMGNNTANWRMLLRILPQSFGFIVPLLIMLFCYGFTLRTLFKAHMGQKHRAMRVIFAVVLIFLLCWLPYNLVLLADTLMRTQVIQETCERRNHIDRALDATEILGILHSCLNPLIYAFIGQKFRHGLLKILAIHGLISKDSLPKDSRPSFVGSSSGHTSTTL",
  "data": [
    {"substance": "vCXCL1_(GT5 (4–97)), N-terminally truncated vCXCL1GT5 (domain or fragment)", "values": [
      {"measurement": "IP accumulation (G protein signaling, Gqi4myr) in transfected COS-7 cells, agonism at 1 μM (% of the efficacy of CXCL8 on CXCR2)", "result": 31}
    ]},
    {"substance": "vCXCL1_(GT5 (6–97)), N-terminally truncated vCXCL1GT5 (domain or fragment)", "values": [
      {"measurement": "IP accumulation (G protein signaling, Gqi4myr) in transfected COS-7 cells, agonism at 1 μM (% of the efficacy of CXCL8 on CXCR2)", "result": 29}
    ]},
    {"substance": "vCXCL1GT5, the non-ELR CXC chemokine encoded by HCMV UL146 genotype 5 (Davis strain), wild type (1–97) (ligand)", "values": [
      {"measurement": "IP accumulation (G protein signaling, Gqi4myr) in transfected COS-7 cells, agonism at 1 μM (% of the maximal activity of CXCL8)", "result": 60}
    ]}
  ]
}
